Measurements published in patent US20180155451A1 (published 2018).

T1: FcgRIIa R extracellular domain with C-terminal His tag (human, UniProt P12318 34-217)
T1 construct: extracellular domain; also called FcγRIIa R; FcγRIIa type R; not shown: His tag attached to the C terminus
T1 sequence (looked up): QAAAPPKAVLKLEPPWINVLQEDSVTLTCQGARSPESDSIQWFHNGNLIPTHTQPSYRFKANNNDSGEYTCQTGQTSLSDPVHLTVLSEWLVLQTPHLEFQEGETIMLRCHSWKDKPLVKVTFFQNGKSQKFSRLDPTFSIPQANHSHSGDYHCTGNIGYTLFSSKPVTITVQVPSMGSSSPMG

T2: FcgRIIb extracellular domain with C-terminal His tag (human, UniProt P31994 43-217)
T2 construct: extracellular domain; also called FcγRIIb; not shown: His tag attached to the C terminus
T2 sequence (looked up): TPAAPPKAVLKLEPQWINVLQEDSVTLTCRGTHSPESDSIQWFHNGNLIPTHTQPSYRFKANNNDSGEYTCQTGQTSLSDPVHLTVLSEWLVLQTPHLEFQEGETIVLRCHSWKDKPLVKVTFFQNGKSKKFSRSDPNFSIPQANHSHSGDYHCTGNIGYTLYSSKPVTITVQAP

T3: FcgRIIa H extracellular domain with C-terminal His tag (human, UniProt P12318 34-217)
T3 construct: extracellular domain; also called FcγRIIa H; FcγRIIa type H; not shown: His tag attached to the C terminus
T3 sequence (looked up): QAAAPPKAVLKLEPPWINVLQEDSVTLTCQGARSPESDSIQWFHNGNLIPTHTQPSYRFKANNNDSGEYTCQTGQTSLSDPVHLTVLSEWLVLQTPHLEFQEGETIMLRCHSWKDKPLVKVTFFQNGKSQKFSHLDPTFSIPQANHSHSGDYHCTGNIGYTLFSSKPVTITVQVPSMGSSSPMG


Legend:
Assay in all cases: SPR (Biacore) KD ratio against the template H240-Kn061/H240-Hl071/L73-k0
[1] = biological target: T1, FcgRIIa R extracellular domain with …
Protocol: (§1) The antibodies were assessed for the binding to each FcgR. […] The resultant value was defined as relative KD, and used as an assessment indicator.
(§2) Analysis of interaction between obj ective antibody and the FcγR was carried out using Biacore T100 (GE Healthcare), Biacore T200, Biacore A100, and Biacore 4000. HBS-EP+ (GE Healthcare) was used as the running buffer, and the measurement temperature was set to 25° C. Chips produced by immobilizing the antigen peptide by the amine coupling method to a Series S sensor Chip CM5 (GE Healthcare), chips produced by allowing preliminarily biotinylated antigen peptides to interact with and immobilize onto a Series S Sensor Chip SA (certified) (GE Healthcare), chips produced by immobilizing Protein L (ACTIGEN, BioVision) to Series S Sencor Chip CM5 (GE Healthcare), or chips produced by immobilizing Protein A/G (Thermo Scientific) to Series S Sencor Chip CM5 (GE Healthcare) were used. Antibodies of interest were captured onto these chips, and allowed to interact to each FcγR diluted with running buffer.

[2] = biological target: T2, FcgRIIb extracellular domain with …
Protocol: as §1, §2

[3] = biological target: T4, FcgRIIIa F extracellular domain with C-terminal His tag (human, UniProt P08637 17-208)
T4 construct: extracellular domain; also called FcγRIIIa F; FcγRIIIa (F158); not shown: His tag attached to the C terminus
Protocol: as §1, §2

[4] = biological target: T5, FcgRIIIa V extracellular domain with C-terminal His tag (human, UniProt P08637 17-208)
T5 construct: extracellular domain; also called FcγRIIIa V; FcγRIIIa (V158); not shown: His tag attached to the C terminus
Protocol: as §1, §2

[5] = biological target: T3, FcgRIIa H extracellular domain with …
Protocol: as §1, §2

T5 sequence (P08637 17-208 F176V): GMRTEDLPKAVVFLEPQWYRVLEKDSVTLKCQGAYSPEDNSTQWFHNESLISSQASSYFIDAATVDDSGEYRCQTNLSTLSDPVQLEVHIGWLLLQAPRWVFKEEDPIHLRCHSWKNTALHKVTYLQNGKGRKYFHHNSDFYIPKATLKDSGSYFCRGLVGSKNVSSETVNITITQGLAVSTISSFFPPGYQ
T4 sequence (P08637 17-208): as the sequence (P08637 17-208 F176V) above, with V160F counted along it

| Binder | relative KD (KD of H240-Kn061/H240-Hl071/L73-k0 / KD of variant) [1] | relative KD (KD of H240-Kn061/H240-Hl071/L73-k0 / KD of variant) [2] | relative KD (KD of H240-Kn061/H240-Hl071/L73-k0 / KD of variant) [3] | relative KD (KD of H240-Kn061/H240-Hl071/L73-k0 / KD of variant) [4] | relative KD (KD of H240-Kn061/H240-Hl071/L73-k0 / KD of variant) [5] |
| --- | --- | --- | --- | --- | --- |
| H240-Kn061/H240-Hl071/L73-k0 variant with F241M introduced into H240-Hl071 (antibody, human IgG1, kappa, Point variant made with H240-Kn061/H240-Hl071/L73-k0 as template; position by EU numbering; also called H240-Hl071 F241M) heavy 1: QDQLVQSGAEVKKPGASVKVSCKASGFNIKDTYIQWVRQAPGQGLEWMGRIDPLRKQTKYREKFEGRVTITADTSTNTAYMELSSLRSEDTAVYYCVRSGREFDYWGQGTLVTVSSASTKGPSVFPLAPSSKSTSGGTAALGCLVKDYFPEPVTVSWNSGALTSGVHTFPAVLQSSGLYSLSSVVTVPSSSLGTQTYICNVNHKPSNTKVDKKVEPKSCDKTHTCPPCPAPEYYWGPSVFLFPPKPKDTLMISRTPEVTCVVVDVSDEDPEVKFNWYVDGVEVHNAKTKPREEQYNATYRVVSVLTVLHQDWLNGKEYKCKVSNKALPAPIEKTISKAKGQPREPQVCTLPPSRDELTKNQVSLWCLVKGFYPSDIAVEWESNGQPENNYKTTPPVLDSDGSFFLYSKLTVDKSRWQQGNVFSCSVMHEALHNHYTQKSLSLSP heavy 2: QDQLVQSGAEVKKPGASVKVSCKASGFNIKDTYIQWVRQAPGQGLEWMGRIDPLRKQTKYREKFEGRVTITADTSTNTAYMELSSLRSEDTAVYYCVRSGREFDYWGQGTLVTVSSASTKGPSVFPLAPSSKSTSGGTAALGCLVKDYFPEPVTVSWNSGALTSGVHTFPAVLQSSGLYSLSSVVTVPSSSLGTQTYICNVNHKPSNTKVDKKVEPKSCDKTHTCPPCPAPELLGGPSVMLFPPKPKDTLMISRTPEVTCVVVDVSHEDPEVKFNWYVDGVEVHNAKTKPREEQYNSTYRVVSVLTVLHQDWLNGKEYKCKVSNDALPMPIEETISKAKGQPREPQVYTLPPSRCELTKNQVSLSCAVKGFYPSDIAVEWESNGQPENNYKTTPPVLDSDGSFFLVSKLTVDKSRWQQGNVFSCSVMHEALHNHYTQKSLSLSP light: DIQMTQSPSSLSASVGDRVTITCRASQDIHKYIAWYQQKPGQAPRLLIQYTSTLQPGVPSRFSGSGSGTDYTFTISSLQPEDIATYYCLQYEQLRTFGGGTKVEIKRTVAAPSVFIFPPSDEQLKSGTASVVCLLNNFYPREAKVQWKVDNALQSGNSQESVTEQDSKDSTYSLSSTLTLSKADYEKHKVYACEVTHQGLSSPVTKSFNRGEC | 1.3 | 0.9 | 1.3 | 1.3 | 1.1 |
| H240-Kn061/H240-Hl071/L73-k0 variant with L235F introduced into H240-Hl071 (antibody, human IgG1, kappa, Point variant made with H240-Kn061/H240-Hl071/L73-k0 as template; position by EU numbering; also called H240-Hl071 L235F) heavy 1: QDQLVQSGAEVKKPGASVKVSCKASGFNIKDTYIQWVRQAPGQGLEWMGRIDPLRKQTKYREKFEGRVTITADTSTNTAYMELSSLRSEDTAVYYCVRSGREFDYWGQGTLVTVSSASTKGPSVFPLAPSSKSTSGGTAALGCLVKDYFPEPVTVSWNSGALTSGVHTFPAVLQSSGLYSLSSVVTVPSSSLGTQTYICNVNHKPSNTKVDKKVEPKSCDKTHTCPPCPAPEYYWGPSVFLFPPKPKDTLMISRTPEVTCVVVDVSDEDPEVKFNWYVDGVEVHNAKTKPREEQYNATYRVVSVLTVLHQDWLNGKEYKCKVSNKALPAPIEKTISKAKGQPREPQVCTLPPSRDELTKNQVSLWCLVKGFYPSDIAVEWESNGQPENNYKTTPPVLDSDGSFFLYSKLTVDKSRWQQGNVFSCSVMHEALHNHYTQKSLSLSP heavy 2: QDQLVQSGAEVKKPGASVKVSCKASGFNIKDTYIQWVRQAPGQGLEWMGRIDPLRKQTKYREKFEGRVTITADTSTNTAYMELSSLRSEDTAVYYCVRSGREFDYWGQGTLVTVSSASTKGPSVFPLAPSSKSTSGGTAALGCLVKDYFPEPVTVSWNSGALTSGVHTFPAVLQSSGLYSLSSVVTVPSSSLGTQTYICNVNHKPSNTKVDKKVEPKSCDKTHTCPPCPAPELFGGPSVFLFPPKPKDTLMISRTPEVTCVVVDVSHEDPEVKFNWYVDGVEVHNAKTKPREEQYNSTYRVVSVLTVLHQDWLNGKEYKCKVSNDALPMPIEETISKAKGQPREPQVYTLPPSRCELTKNQVSLSCAVKGFYPSDIAVEWESNGQPENNYKTTPPVLDSDGSFFLVSKLTVDKSRWQQGNVFSCSVMHEALHNHYTQKSLSLSP light: DIQMTQSPSSLSASVGDRVTITCRASQDIHKYIAWYQQKPGQAPRLLIQYTSTLQPGVPSRFSGSGSGTDYTFTISSLQPEDIATYYCLQYEQLRTFGGGTKVEIKRTVAAPSVFIFPPSDEQLKSGTASVVCLLNNFYPREAKVQWKVDNALQSGNSQESVTEQDSKDSTYSLSSTLTLSKADYEKHKVYACEVTHQGLSSPVTKSFNRGEC | 1.2 | 1 | 1.9 | 1.6 | 1.1 |
| H240-Kn061/H240-Hl071/L73-k0 variant with V240A introduced into H240-Hl071 (antibody, human IgG1, kappa, Point variant made with H240-Kn061/H240-Hl071/L73-k0 as template; position by EU numbering; also called H240-Hl071 V240A) heavy 1: QDQLVQSGAEVKKPGASVKVSCKASGFNIKDTYIQWVRQAPGQGLEWMGRIDPLRKQTKYREKFEGRVTITADTSTNTAYMELSSLRSEDTAVYYCVRSGREFDYWGQGTLVTVSSASTKGPSVFPLAPSSKSTSGGTAALGCLVKDYFPEPVTVSWNSGALTSGVHTFPAVLQSSGLYSLSSVVTVPSSSLGTQTYICNVNHKPSNTKVDKKVEPKSCDKTHTCPPCPAPEYYWGPSVFLFPPKPKDTLMISRTPEVTCVVVDVSDEDPEVKFNWYVDGVEVHNAKTKPREEQYNATYRVVSVLTVLHQDWLNGKEYKCKVSNKALPAPIEKTISKAKGQPREPQVCTLPPSRDELTKNQVSLWCLVKGFYPSDIAVEWESNGQPENNYKTTPPVLDSDGSFFLYSKLTVDKSRWQQGNVFSCSVMHEALHNHYTQKSLSLSP heavy 2: QDQLVQSGAEVKKPGASVKVSCKASGFNIKDTYIQWVRQAPGQGLEWMGRIDPLRKQTKYREKFEGRVTITADTSTNTAYMELSSLRSEDTAVYYCVRSGREFDYWGQGTLVTVSSASTKGPSVFPLAPSSKSTSGGTAALGCLVKDYFPEPVTVSWNSGALTSGVHTFPAVLQSSGLYSLSSVVTVPSSSLGTQTYICNVNHKPSNTKVDKKVEPKSCDKTHTCPPCPAPELLGGPSAFLFPPKPKDTLMISRTPEVTCVVVDVSHEDPEVKFNWYVDGVEVHNAKTKPREEQYNSTYRVVSVLTVLHQDWLNGKEYKCKVSNDALPMPIEETISKAKGQPREPQVYTLPPSRCELTKNQVSLSCAVKGFYPSDIAVEWESNGQPENNYKTTPPVLDSDGSFFLVSKLTVDKSRWQQGNVFSCSVMHEALHNHYTQKSLSLSP light: DIQMTQSPSSLSASVGDRVTITCRASQDIHKYIAWYQQKPGQAPRLLIQYTSTLQPGVPSRFSGSGSGTDYTFTISSLQPEDIATYYCLQYEQLRTFGGGTKVEIKRTVAAPSVFIFPPSDEQLKSGTASVVCLLNNFYPREAKVQWKVDNALQSGNSQESVTEQDSKDSTYSLSSTLTLSKADYEKHKVYACEVTHQGLSSPVTKSFNRGEC | 1 | 1 | 1.3 | 1.7 | 1.2 |
